The results in this text go back to patent publication US9200040B2, “Specific binding agents of human angiopoietin-2” (Amgen Inc., priority 2001, dated 2015).

Entries after “also recorded” stand apart in the source; their conditions may differ. Read-outs that look alike come from different tables or passages of the source. Primed or numbered codes have the meaning given here. Where no end group is shown, it is not given here. [ ]: non-standard residue; d: D form. Fc(5) = non-antigen-binding fragment of an antibody (vehicle) fused to the peptide

In data set [1] the test system is VEGF-induced angiogenesis. The experiment in a line: Corneal angiogenesis model. Format: in vivo. The protocol:
Ang-2 peptibody CON4(C) was evaluated in the corneal model of angiogenesis in rats. Angiogenesis was induced by implanting a VEGF- (or BSA control) soaked nylon disc into the corneal stroma (n=8/group). Peptibody TN8CON4-C was administered by sub-cutaneous injection at 1.0 or 0.1 mg/rat/day for seven days. Two other groups of animals were treated with the same dose of negative control peptibody 4883. All groups were pre-treated with a single loading dose of either 3.0 or 0.3 mg that was three times the maintenance dose of 1.0 or 0.1 mg (see figure). After seven days of treatment, two vascular endpoints were determined from each digital image of the rat cornea: the number of vessels intersecting the mid-point between the disc and the limbus, and the blood vessel area.

The target of another data set is T1, huAng2 (Homo sapiens, UniProt O15123).
T1 construct: purchased R&D Systems BNO12103A
T1 sequence (O15123 68-496 limits assumed): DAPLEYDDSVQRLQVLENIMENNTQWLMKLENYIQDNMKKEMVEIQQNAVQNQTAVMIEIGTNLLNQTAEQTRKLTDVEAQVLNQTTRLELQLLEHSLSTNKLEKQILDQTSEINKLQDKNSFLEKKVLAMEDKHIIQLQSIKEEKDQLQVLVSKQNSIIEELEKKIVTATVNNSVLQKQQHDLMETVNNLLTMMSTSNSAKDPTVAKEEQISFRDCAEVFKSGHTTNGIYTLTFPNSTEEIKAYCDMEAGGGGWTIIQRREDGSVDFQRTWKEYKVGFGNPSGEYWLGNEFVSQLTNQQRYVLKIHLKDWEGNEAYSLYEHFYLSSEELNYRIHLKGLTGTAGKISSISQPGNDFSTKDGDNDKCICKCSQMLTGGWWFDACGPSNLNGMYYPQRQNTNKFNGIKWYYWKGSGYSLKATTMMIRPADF
The experiment in a line: BIAcore binding to huAng2 (Example 9). The following applies: Table 8. Here is the method: Six samples of anti-Ang2 peptibodies were tested for their binding activity to huAng2 (R&D Systems, BNO12103A) on BIAcore. Protein G was immobilized to a CM5 chip according to the standard amine-coupling protocol (BIAcore Inc.), and the peptibodies were then injected over a protein G surface for capturing (RL˜100 Ru). To test binding between hAng2 and the captured peptibody, 0.3 nM to 40 nM of huAng2 was injected over the captured peptibody surfaces, and binding sensorgrams were analyzed using BIAevaluation 3.0 (BIAcore Inc.).

Another data set deals with A431 tumor. Particulars: p<0.0001.
For another data set, the target named is T2, mAng-2 (Mus musculus, UniProt O35608).
T2 construct: made in house
T2 sequence (O35608 19-496): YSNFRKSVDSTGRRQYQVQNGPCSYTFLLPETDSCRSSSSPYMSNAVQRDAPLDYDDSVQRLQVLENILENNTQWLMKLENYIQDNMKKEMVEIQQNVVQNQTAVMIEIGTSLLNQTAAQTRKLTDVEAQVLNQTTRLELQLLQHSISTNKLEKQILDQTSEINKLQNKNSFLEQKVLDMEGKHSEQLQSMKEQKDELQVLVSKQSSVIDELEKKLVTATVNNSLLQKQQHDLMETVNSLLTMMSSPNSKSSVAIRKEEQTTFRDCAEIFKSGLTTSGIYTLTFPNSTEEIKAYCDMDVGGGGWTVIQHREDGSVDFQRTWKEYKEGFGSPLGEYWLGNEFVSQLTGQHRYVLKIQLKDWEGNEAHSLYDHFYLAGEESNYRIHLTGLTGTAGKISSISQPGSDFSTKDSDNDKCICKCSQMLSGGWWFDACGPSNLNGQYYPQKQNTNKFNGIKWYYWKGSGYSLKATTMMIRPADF
The data set can be described thus: Affinity BIAcore (Example 2). In kind it is binding, murine. The following applies: Table 6. Here is the method:
(§1) Binding assays were carried out by first capturing about 100 Ru of each candidate anti-Ang-2 peptibody to the immobilized Protein G, after which various concentrations (0-100 nM) of huAng-2 or mAng-2 were injected over the bound antibody surface at a flow rate of 50 μl/min for 3 minutes. Peptibody binding kinetic parameters including ka (association rate constant), kd (dissociation rate constant) and KD (dissociation equilibrium constant) were determined using the BIA evaluation 3.1 computer program (Biacore, Inc.). Lower dissociation equilibrium constants indicated greater affinity of the peptibody for Ang-2.
A general note: SPR reads the build-up and loss of mass on a sensor chip optically.

A further data set addresses T3, hAng-2 (Homo sapiens, UniProt O15123).
T3 construct: conditioned media of human 293T cells transfected with full length human Ang-2 DNA; made in house; host or cells: conditioned media
T3 sequence (O15123 19-496): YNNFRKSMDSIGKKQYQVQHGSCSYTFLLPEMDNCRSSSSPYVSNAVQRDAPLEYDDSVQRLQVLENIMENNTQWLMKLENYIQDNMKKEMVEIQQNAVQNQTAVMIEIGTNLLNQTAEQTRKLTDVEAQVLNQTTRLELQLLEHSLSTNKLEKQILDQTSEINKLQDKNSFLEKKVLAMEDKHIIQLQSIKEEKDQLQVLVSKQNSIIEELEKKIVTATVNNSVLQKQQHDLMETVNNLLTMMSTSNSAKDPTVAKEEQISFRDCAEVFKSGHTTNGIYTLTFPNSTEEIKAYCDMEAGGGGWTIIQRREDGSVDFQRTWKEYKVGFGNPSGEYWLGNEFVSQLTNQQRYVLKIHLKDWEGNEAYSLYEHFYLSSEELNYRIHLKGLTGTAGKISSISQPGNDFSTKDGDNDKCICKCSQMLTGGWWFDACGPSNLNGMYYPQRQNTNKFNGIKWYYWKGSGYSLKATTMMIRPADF
The experiment in a line: Affinity BIAcore (Example 2). In kind it is binding. The following applies: Table 6. The protocol:
as §1

Data set [2] concerns the target T4, hAng-1 (Homo sapiens, UniProt Q15389).
T4 sequence (Q15389 16-498): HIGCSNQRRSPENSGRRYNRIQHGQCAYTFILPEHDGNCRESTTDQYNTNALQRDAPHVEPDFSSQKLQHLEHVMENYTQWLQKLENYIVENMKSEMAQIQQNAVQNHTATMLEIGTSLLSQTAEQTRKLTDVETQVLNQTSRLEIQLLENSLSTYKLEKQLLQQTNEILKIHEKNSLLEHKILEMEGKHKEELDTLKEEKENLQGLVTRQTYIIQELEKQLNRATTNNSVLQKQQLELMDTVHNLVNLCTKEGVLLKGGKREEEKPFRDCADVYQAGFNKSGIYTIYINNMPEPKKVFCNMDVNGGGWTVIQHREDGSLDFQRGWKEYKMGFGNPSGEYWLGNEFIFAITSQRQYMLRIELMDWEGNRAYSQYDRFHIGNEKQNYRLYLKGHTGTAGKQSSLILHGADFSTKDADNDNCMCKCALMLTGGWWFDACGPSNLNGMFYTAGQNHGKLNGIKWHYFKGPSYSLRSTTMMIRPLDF
The experiment in a line: Affinity ELISA. Format: binding. The following applies: Table 5. (In general: In an ELISA, binding on a coated surface is turned into a signal by an enzyme label.)

Data set [3] deals with T4, hAng-1. The data set can be described thus: Neutralization ELISA (Example 2). Format: binding. Particulars: Table 5; about 1 nM Tie-2-Fc.
For another data set, the system named is Colo-205 tumor. Here is the method:
Female nude mice were injected subcutaneously with 2×10^6 Colo-205 cells plus Matrigel (2:1) on study day 0. At day 3, the Ang-2 peptibodies L1-7-N, L1-21-N, Con4-C, and 2×Con4-C were administered subcutaneously at the dose of […], twice a week.
Female nude mice were injected subcutaneously with 2×10^6 Colo-205 cells plus Matrigel (2:1) on study day 0.
Female nude mice were injected subcutaneously with 2×10^6 Colo-205 cells plus Matrigel (2:1) on study day 0. At day 3, Ang-2 peptibody 2×Con4-C or control peptibody were administered subcutaneously at the dose of 350 μg/day. Tumors from groups treated with control peptibody (as described in Table 5) were harvested either at Day 14 (size-matched control) or Day 18 (time-matched control). Tumors from 2×Con4(C) treated group were then harvested at Day 18. Tumor volumes were recorded at regular intervals, as shown.
Female nude mice were injected subcutaneously with 2×10^6 Colo-205 cells plus Matrigel (2:1) on study day 0. Treatment with 350 μg/mouse, s.c. twice a week, of the Ang-2 peptibody 2×Con4-C, or equivalent control peptibody started either at study day 3, 10 or 15. […] The results are set forth in FIG. 8 (body weights not shown).
Female nude mice were injected subcutaneously with 2×10^6 Colo-205 cells plus Matrigel (2:1) on study day 0. At study day 14, treatments were started with a) 350 μg/mouse, s.c. twice a week, of the Ang-2 peptibody 2×Con4-C, b) 20 mg/kg qwx3 i.p. of taxotere, or c) a combination of both.
Female nude mice were injected subcutaneously with 2×10^6 Colo-205 cells plus Matrigel (2:1) on study day 0. At study day 14 started treatments with a) 350 μg/mouse, s.c. twice a week, of the Ang-2 peptibody 2×Con4-C, b) 50 mg/kg qdx5 i.p. of 5-FU, or c) a combination of both.

Experimental for A431 tumor: The doses of peptibody used were 1000, 200, 40 and 8 ug/mouse/day. A total of 20 doses was given to all animals. Tumor volumes and body weights were recorded three times/week. At the end of the study, animals were sacrificed, and their sera were collected for measuring peptibody levels by ELISA. Tumors and a panel of normal tissues were collected from all groups.
Female nude mice were injected subcutaneously with 1×10^7 A431 cells on study day 0.

For “M-Fc-GGGGGAQQEECEWDPWTCEHMLE (M[Fc]GGGGGAQQEECEWDPWTCEHMLE; cysteine pairing not given here) [Con4 (C)]”, in data set [1] (1.0 or 0.1 mg/rat/day s.c. for seven days), the “overt toxicity based on body weights” value is “no evidence of overt toxicity”. The “VEGF-induced angiogenesis (number of vessels, blood vessel area)” value in data set [1] (s.c. 1.0 or 0.1 mg/rat/day for seven days after loading dose 3.0 or 0.3 mg, p<0.04) was “significantly inhibited VEGF-induced angiogenesis in a dose-dependent manner”. In the data set with huAng2, the ka stood at 530000 M⁻¹ s⁻¹ and the kd was 0.0002 s⁻¹. The “tumor growth vs. vehicle control” value in the data set on A431 tumor (s.c. once per day, 1000, 200, 40 and 8 ug/mouse/day, 20 doses) is on record as “inhibited tumor growth”.

In the data set with mAng-2, “MGAQQEECEWDPWTCEHMLEGGGGG-Fc (MGAQQEECEWDPWTCEHMLEGGGGG-{Fc(5)}; not fully specified (bridges); printed as MGAQQEECEWDPWTCEHMLEGGGGG-Fc; cysteine pairing not given here) [Con4 (N)]” came in with a mAng-2 ka of 730000 M⁻¹ s⁻¹ and a mAng-2 kd of 0.00044 s⁻¹. In the data set with hAng-2, this molecule returned a hAng-2 ka of 330000 M⁻¹ s⁻¹ and a hAng-2 kd of 0.00022 s⁻¹. Further, in the data set with hAng-1 [2], the “hAng-1 EC 50” value is on record as “No”. The “hAng-1 IC 50” value in the data set with hAng-1 [3] was “No In-”.

B1: M-Fc-GGGGGAQQEECEWDPWTCEHMGSGSATGGSGSTASSGSGSATHQEECEWDPWTCEHMLE (protein)
chain: M[Fc]GGGGGAQQEECEWDPWTCEHMGSGSATGGSGSTASSGSGSATHQEECEWDPWTCEHMLE
The molecule B1 showed a ka with huAng2 of 480000 M⁻¹ s⁻¹. For the same molecule, in the data set with huAng2, the kd is 0.00016 s⁻¹. The body weights result in the data set with Colo-205 tumor (Example 15), in the data set on Colo-205 tumor (Example 17) and in the data set with Colo-205 tumor (Example 19a) was “no significant effect on body weights” throughout. The “tumor growth vs. vehicle control and control peptibody” value with Colo-205 tumor (Example 15: s.c. 14, 2.8 and 0.56 μg/mouse twice a week, p=0.003 intermediate dose, p<0.0001 high dose) is on record as “Significant differences in tumor growth were observed between the two higher doses”; in the data set with A431 tumor (200 μg/mouse/day s.c. from day 3), “Significant differences in tumor growth”. The body weight result in the data set with Colo-205 tumor (Example 16) is “no significant effect on body weight”. For the same molecule, the “tumor growth vs. time-matched control group” value with Colo-205 tumor (Example 16: s.c. 350 μg/day from day 3, harvested Day 18, p=0.0154) is listed as “Significant differences in tumor growth”. For the same molecule, the “tumor growth vs. vehicle control” value in the data set with Colo-205 tumor (Example 17: 350 μg/mouse s.c. twice a week started at study day 3, 10 or 15, p=0.089 day 15 group, p<0.0001 day 3 and 10 groups, listed as 2×Con4-C) is “capable of inhibiting Colo205 tumor growth irrespective of when dosing begins; also recorded: Significant differences in tumor growth”; in the data set with Colo-205 tumor (Example 19a, from study day 14: 2×Con4-C 350 μg/mouse s.c. twice a week, taxotere 20 mg/kg qwx3 i.p., or both, p<0.0001), “Significant differences in tumor growth”; with Colo-205 tumor (Example 19b, from study day 14: 2×Con4-C 350 μg/mouse s.c. twice a week, 5-FU 50 mg/kg qdx5 i.p., or both, p<0.0001), “Significant differences in tumor growth”.
